# Source: the supplement of paper PMC11780869
# Tested on: Bacillus subtilis
# Experiment: cleaved RNA product abundance (RNA/gDNA barcode ratio) relative to median wild-type variant (ratio to wild type); higher = more accumulation of the downstream cleavage product
# Conditions: cleavage site: cggR-gapA (positions -7 to +36 mutated)
# Procedure: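 MPRA in B. subtilis. Mutagenized RNase Y cleavage-site regions (9% mutation rate) were inserted into a barcoded reporter mRNA (truncated aprE or tetM). Cells were grown in LB at 37°C to OD600 0.3. The cleaved RNA isoform was gel-purified and its barcodes counted; the RNA:gDNA barcode ratio was normalised to the median wild-type variant, and the median over barcodes is reported per variant. The printed sequence is the variable window only; the reporter flanks are not printed.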
# [1] = experiment (reporter, strain, medium): exp 2b: truncated aprE reporter, strain BJT200
# [2] = experiment (reporter, strain, medium): exp 4a: truncated aprE reporter, strain BJT201 with 2% xylose (RNase J1 expressed)
# [3] = experiment (reporter, strain, medium): exp 6: tetM reporter, strain 168
Sequence,cleaved RNA product abundance [1],cleaved RNA product abundance [2],cleaved RNA product abundance [3]
ACAGACGAAGGAGCCGCAAAGAAGTAATTAATGGATGAATAATCCCTCAATATAAATATCTCTCACTTATTTAAA,0.105,0.121,0.0999
ACAGACGAAGGAGCCGCAAAGAAGTAATTATGGGATGAATAATCCCTCAATATAAATATCTCTCACTTATTTAAA,,0.169,
ACAGACGAAGGAGCCGCAAAGAAGTAATTCAGGGATGAATAATCCCTCAATATAAATATCTCTCACTTATTTAAA,,0.325,
ACAGACGAAGGAGCCGCAAAGAAGTACTTAAGGGATGAATAATCCCTCAATATAAATATCTCTCACTTATTTAAA,,0.243,
ACAGACGAAGGAGCCGCAAAGAAGTATTTAAGGGATGAATAATCCCTCAATATAAATATCTCTCACTTATTTAAA,0.275,0.288,
ACAGACGAAGGAGCCGCAAAGAAGTCAATAAGGGATGAATAATCCCTCAATATAAATATCTCTCACTTATTTAAA,,0.284,
ACAGACGAAGGAGCCGCAAAGAAGTCATAAAGGGATGAATAATCCCTCAATATAAATATCTCTCACTTATTTAAA,,0.198,
ACAGACGAAGGAGCCGCAAAGAAGTCATGAAGGGATGAATAATCCCTCAATATAAATATCTCTCACTTATTTAAA,,0.325,
ACAGACGAAGGAGCCGCAAAGAAGTCATTAAAGGATGAATAATCCCTCAATATAAATATCTCTCACTTATTTAAA,,0.158,
ACAGACGAAGGAGCCGCAAAGAAGTCATTAACGGATGAATAATCCCTCAATATAAATATCTCTCACTTATTTAAA,,0.128,
ACAGACGAAGGAGCCGCAAAGAAGTCATTAAGAGATGAATAATCCCTCAATATAAATATCTCTCACTTATTTAAA,0.108,0.137,
ACAGACGAAGGAGCCGCAAAGAAGTCATTAAGCGATGAATAATCCCTCAATATAAATATCTCTCACTTATTTAAA,,0.0665,
ACAGACGAAGGAGCCGCAAAGAAGTCATTAAGGAATGAATAATCCCTCAATATAAATATCTCTCACTTATTTAAA,0.0849,0.139,
ACAGACGAAGGAGCCGCAAAGAAGTCATTAAGGCATGAATAATCCCTCAATATAAATATCTCTCACTTATTTAAA,,0.102,
ACAGACGAAGGAGCCGCAAAGAAGTCATTAAGGGACGAATAATCCCTCAATATAAATATCTCTCACTTATTTAAA,,0.154,
ACAGACGAAGGAGCCGCAAAGAAGTCATTAAGGGATAAATAATCCCTCAATATAAATATCTCTCACTTATTTAAA,0.195,0.308,
ACAGACGAAGGAGCCGCAAAGAAGTCATTAAGGGATGAAAAATCCCTCAATATAAATATCTCTCACTTATTTAAA,0.173,0.2,
ACAGACGAAGGAGCCGCAAAGAAGTCATTAAGGGATGAATAAACCCTCAATATAAATATCTCTCACTTATTTAAA,,0.176,
ACAGACGAAGGAGCCGCAAAGAAGTCATTAAGGGATGAATAATCCCACAATATAAATATCTCTCACTTATTTAAA,0.142,0.2,
ACAGACGAAGGAGCCGCAAAGAAGTCATTAAGGGATGAATAATCCCCCAATATAAATATCTCTCACTTATTTAAA,,0.113,
ACAGACGAAGGAGCCGCAAAGAAGTCATTAAGGGATGAATAATCCCTCAAAATAAATATCTCTCACTTATTTAAA,,0.203,
ACAGACGAAGGAGCCGCAAAGAAGTCATTAAGGGATGAATAATCCCTCAATATAAACATCTCTCACTTATTTAAA,,0.333,
ACAGACGAAGGAGCCGCAAAGAAGTCATTAAGGGATGAATAATCCCTCAATATAAATAACTCTCACTTATTTAAA,,0.249,
ACAGACGAAGGAGCCGCAAAGAAGTCATTAAGGGATGAATAATCCCTCAATATAAATATCTCTCACTTATTTAAA,0.186,0.255,0.244
ACAGACGAAGGAGCCGCAAAGAAGTCATTAAGGGATGAATAATCCCTGAATATAAATATCTCTCACTTATTTAAA,,0.136,
